The values below come from patent US20140363427A1.

Test [1] addresses F protein of RSV B-1 (respiratory syncytial virus B-1) (UniProt O36634). Description: cell-based or functional assay.
The target of test [2] is F protein of RSV B-wash (strain 18537) (respiratory syncytial virus B, strain 18537) (UniProt P13843). Description: cell-based or functional assay.
Test [3] concerns the target RSV F A2 mutant V278M (human RSV, A2 strain) (UniProt P03420). Kind of test: mutant F in HEK 293 cells.
Test [4] deals with RSV F A2 mutant F351S (human RSV, A2 strain) (UniProt P03420). Description: mutant F in HEK 293 cells.
In test [5] the target is F protein of the parental RSV A2 strain (Example 11) (Respiratory Syncytial Virus strain A2) (UniProt P03420). Description: cell-based or functional assay.
The target of test [6] is F protein of the Motavizumab MARM (K272E) (Respiratory Syncytial Virus strain A2, escape mutant) (UniProt P03420). Description: cell-based or functional assay.
The target in test [7] is F protein of the 58C5 MARM (N63K, M115K, E295G) (Respiratory Syncytial Virus strain A2, escape mutant) (UniProt P03420). Description: cell-based or functional assay.
Test [8] has as its target native RSV F protein from the RSV A2 strain (Respiratory Syncytial Virus strain A2) (UniProt P03420). Description: cell-based or functional assay.
Test [9] concerns the target RSV F A2 mutant E82G (human RSV, A2 strain) (UniProt P03420). Description: mutant F in HEK 293 cells.
The target of test [10] is RSV F A2 mutant N371D (human RSV, A2 strain) (UniProt P03420). Kind of test: mutant F in HEK 293 cells.
The target of test [11] is RSV F A2 mutant S403A (human RSV, A2 strain) (UniProt P03420). Kind of test: mutant F in HEK 293 cells.
In test [12] the target is RSV F A2 mutant E463A (human RSV, A2 strain) (UniProt P03420). Kind of test: mutant F in HEK 293 cells.
Test [13] deals with RSV F A2 mutant Y86C (human RSV, A2 strain) (UniProt P03420). Description: mutant F in HEK 293 cells.

As to Fab 58c5, in [1], the Average Plaque Count, RSV B-1, Fab at 0.003 µg/ml (12.3 at 0 µg/ml) was 11.7; the Average Plaque Count, RSV B-1, Fab at 0.016 µg/ml (12.3 at 0 µg/ml) worked out at 8.7; the Average Plaque Count, RSV B-1, Fab at 0.08 µg/ml (12.3 at 0 µg/ml) was 4.7; the Average Plaque Count, RSV B-1, Fab at 0.4 µg/ml (12.3 at 0 µg/ml) amounted to 0. In test [1], the Average Plaque Count, RSV B-1, Fab at 2 µg/ml (12.3 at 0 µg/ml) was 0; the Average Plaque Count, RSV B-1, Fab at 10 µg/ml (12.3 at 0 µg/ml) turned out to be 0.3; the ED50, plaque reduction, RSV B-1 came out at 0.84 nM; the ED50, plaque reduction, RSV B-1 (mass concentration) is 0.042 µg/mL. In [2], the Average Plaque Count, RSV B/wash, Fab at 0.003 µg/ml (26.3 at 0 µg/ml) turned out to be 23.3; the Average Plaque Count, RSV B/wash, Fab at 0.016 µg/ml (26.3 at 0 µg/ml) is 16.3; the Average Plaque Count, RSV B/wash, Fab at 0.08 µg/ml (26.3 at 0 µg/ml) amounted to 5; the Average Plaque Count, RSV B/wash, Fab at 0.4 µg/ml (26.3 at 0 µg/ml) stood at 0. In test [2], this substance showed an Average Plaque Count, RSV B/wash, Fab at 2 µg/ml (26.3 at 0 µg/ml) of 0.7; an Average Plaque Count, RSV B/wash, Fab at 10 µg/ml (26.3 at 0 µg/ml) of 1.3; an ED50, plaque reduction, RSV B/wash of 0.5 nM; an ED50, plaque reduction, RSV B/wash (mass concentration) of 0.025 µg/mL.

For the substance IgG form of 58c5 (antibody), in test [3], the immunoluminescence Mean was 99.8, the immunoluminescence S1 is 122, the immunoluminescence S2 amounted to 97.6 and the immunoluminescence S3 is 79.6. In test [4], the immunoluminescence Mean was 7.4, the immunoluminescence S1 came to 2.9, the immunoluminescence S3 stood at 6.1 and the immunoluminescence S4 was 14.7. The ED50, plaque reduction, RSV B-1 in test [1] stood at 0.28 nM. Besides, the ED50, plaque reduction, RSV A2 parental in test [5] is 0.115 nM. Also, the ED50, plaque reduction, Motavizumab MARM in test [6] was 0.173 nM. Besides, the ED50, plaque reduction, 58C5 MARM in test [7] is greater than 66.7 nM. For the same substance, the ED50, plaque reduction, RSV B/wash in [2] worked out at 0.193 nM. The same substance had an ED50, plaque reduction, RSV A2 in test [8] of 0.133 nM.

In the case of Motavizumab IgG (antibody), the immunoluminescence Mean in test [9] is 42.1; in test [10] it was 26.9; in test [11] it was 28; in test [12], 101; in [13] it was 24.8.
